Laboratory results published in the supplement of paper PMC5998384.

Key:
HeLa Kyoto [1] = assay: thermal stability score vs G1/S (z-score of summed log2 fold changes over temperatures); higher = more thermally stable than in G1/S
HeLa Kyoto [2] = assay: solubility change mitosis vs G1/S (difference of NP-40 vs SDS log2 ratios) (log2 ratio difference); higher = more soluble in mitosis
HeLa Kyoto [3] = assay: melting temperature (median over replicates), in situ; higher = more thermally stable
HeLa Kyoto [4] = assay: solubility in G1/S (NP-40 vs SDS abundance) (log2 ratio); higher = more soluble; conditions: cell cycle stage: G1/S
[5] = cell cycle stage: early G1 (4.5 h after nocodazole release)
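Throughout, for melting temperature (median over replicates), in situ: HeLa Kyoto cells synchronized by double thymidine or nocodazole block, proteins quantified by TMT10plex mass spectrometry, three independent biological replicates.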
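Throughout, for solubility change mitosis vs G1/S (difference of NP-40 vs SDS log2 ratios): synchronized HeLa Kyoto cells (double thymidine block for G1/S, nocodazole release for mitosis), protein amounts in NP-40 versus SDS lysates quantified by mass spectrometry, three biological replicates.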
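Throughout, for solubility in G1/S (NP-40 vs SDS abundance): HeLa Kyoto cells arrested at G1/S by double thymidine block, proteins quantified by TMT10plex mass spectrometry in mild NP-40 versus SDS extracts, three biological replicates.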
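Throughout, for thermal stability score vs G1/S (z-score of summed log2 fold changes over temperatures): synchronized HeLa Kyoto cells, proteins quantified by TMT10plex mass spectrometry, three biological replicates, mitosis taken 0.5 h after nocodazole release, G1/S directly after double thymidine block.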

Chain of ARFGAP2 (chain, as listed by the source): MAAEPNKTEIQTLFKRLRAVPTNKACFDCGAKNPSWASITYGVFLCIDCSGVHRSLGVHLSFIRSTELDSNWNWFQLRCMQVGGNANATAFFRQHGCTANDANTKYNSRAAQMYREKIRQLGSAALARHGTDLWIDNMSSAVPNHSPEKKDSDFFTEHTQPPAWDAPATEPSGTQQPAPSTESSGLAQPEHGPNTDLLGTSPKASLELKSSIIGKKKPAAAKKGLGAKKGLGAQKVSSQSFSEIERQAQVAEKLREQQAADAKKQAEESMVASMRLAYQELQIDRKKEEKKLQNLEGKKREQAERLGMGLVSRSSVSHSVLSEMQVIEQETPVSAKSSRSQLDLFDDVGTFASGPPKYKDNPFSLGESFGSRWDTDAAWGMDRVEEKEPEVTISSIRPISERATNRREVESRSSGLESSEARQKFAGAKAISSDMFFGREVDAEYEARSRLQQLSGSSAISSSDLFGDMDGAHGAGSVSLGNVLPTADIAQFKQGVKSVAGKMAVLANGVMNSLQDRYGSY

Row | Substance | thermal stability score (HeLa Kyoto [1]; [5]) | thermal stability score (HeLa Kyoto [1]; cell cycle stage: mitosis) | solubility change mitosis (log2) (HeLa Kyoto [2]) | melting temperature (HeLa Kyoto [3]; cell cycle stage: G1/S) [°C] | melting temperature (HeLa Kyoto [3]; cell cycle stage: mitosis) [°C] | solubility in G1/S (log2) (HeLa Kyoto [4])
1 | MGLAGVCALRRSAGYILVGGAGGQSAAAAARRYSEGEWASGGVRSFSRAAAAMAPIKVGDAIPAVEVFEGEPGNKVNLAELFKGKKGVLFGVPGAFTPGCSKTHLPGFVEQAEALKAKGVQVVACLSVNDAFVTGEWGRAHKAEGKVRLLADPTGAFGKETDLLLDDSLVSIFGNRRLKRFSMVVQDGIVKALNVEPDGTGLTCSLAPNIISQL [PRDX5] | -1.13 | -2.67 | 0.124 | 55.9 | 55.9 | 0.582
2 | MADPEVCCFITKILCAHGGRMALDALLQEIALSEPQLCEVLQVAGPDRFVVLETGGEAGITRSVVATTRARVCRRKYCQRPCDNLHLCKLNLLGRCNYSQSERNLCKYSHEVLSEENFKVLKNHELSGLNKEELAVLLLQSDPFFMPEICKSYKGEGRQQICNQQPPCSRLHICDHFTRGNCRFPNCLRSHNLMDRKVLAIMREHGLNPDVVQNIQDICNSKHMQKNPPGPRAPSSHRRNMAYRARSKSRDRFFQGSQEFLASASASAERSCTPSPDQISHRASLEDAPVDDLTRKFTYLGSQDRARPPSGSSKATDLGGTSQAGTSQRFLENGSQEDLLHGNPGSTYLASNSTSAPNWKSLTSWTNDQGARRKTVFSPTLPAARSSLGSLQTPEAVTTRKGTGLLSSDYRIINGKSGTQDIQPGPLFNNNADGVATDITSTRSLNYKSTSSGHREISSPRIQDAGPASRDVQATGRIADDADPRVALVNDSLSDVTSTTSSRVDDHDSEEICLDHLCKGCPLNGSCSKVHFHLPYRWQMLIGKTWTDFEHMETIEKGYCNPGIHLCSVGSYTINFRVMSCDSFPIRRLSTPSSVTKPANSVFTTKWIWYWKNESGTWIQYGEEKDKRKNSNVDSSYLESLYQSCPRGVVPFQAGSRNYELSFQGMIQTNIASKTQKDVIRRPTFVPQWYVQQMKRGPDHQPAKTSSVSLTATFRPQEDFCFLSSKKYKLSEIHHLHPEYVRVSEHFKASMKNFKIEKIKKIENSELLDKFTWKKSQMKEEGKLLFYATSRAYVESICSNNFDSFLHETHENKYGKGIYFAKDAIYSHKNCPYDAKNVVMFVAQVLVGKFTEGNITYTSPPPQFDSCVDTRSNPSVFVIFQKDQVYPQYVIEYTEDKACVIS [ZC3HAV1] | 1.07 | 1.97 | 0.0381 | 48.1 | 48.8 | -0.202
3 | MARRGWRRAPLRRGVGSSPRARRLMRPLWLLLAVGVFDWAGASDGGGGEARAMDEEIVSEKQAEESHRQDSANLLIFILLLTLTILTIWLFKHRRARFLHETGLAMIYGLLVGLVLRYGIHVPSDVNNVTLSCEVQSSPTTLLVNVSGKFYEYMLKGEISSHELNNVQDNEMLRKVTFDPEVFFNILLPPIIFYAGYSLKRRHFFRNLGSILAYAFLGTAISCFVIGSIMYGCVTLMKVTGQLAGDFYFTDCLLFGAIVSATDPVTVLAIFHELQVDVELYALLFGESVLNDAVAIVLSSSIVAYQPAGDNSHTFDVTAMFKSIGIFLGIFSGSFAMGAATGVVTALVTKFTKLREFQLLETGLFFLMSWSTFLLAEAWGFTGVVAVLFCGITQAHYTYNNLSTESQHRTKQLFELLNFLAENFIFSYMGLTLFTFQNHVFNPTFVVGAFVAIFLGRAANIYPLSLLLNLGRRSKIGSNFQHMMMFAGLRGAMAFALAIRDTATYARQMMFSTTLLIVFFTVWVFGGGTTAMLSCLHIRVGVDSDQEHLGVPENERRTTKAESAWLFRMWYNFDHNYLKPLLTHSGPPLTTTLPACCGPIARCLTSPQAYENQEQLKDDDSDLILNDGDISLTYGDSTVNTEPATSSAPRRFMGNSSEDALDRELAFGDHELVIRGTRLVLPMDDSEPPLNLLDNTRHGPA [SLC9A6] | -2.9 | -3.5 | -0.268 | 56.1 | 57.1 | 0.0823
4 | MRVAALISGGKDSCYNMMQCIAAGHQIVALANLRPAENQVGSDELDSYMYQTVGHHAIDLYAEAMALPLYRRTIRGRSLDTRQVYTKCEGDEVEDLYELLKLVKEKEEVEGISVGAILSDYQRIRVENVCKRLNLQPLAYLWQRNQEDLLREMISSNIQAMIIKVAALGLDPDKHLGKTLDQMEPYLIELSKKYGVHVCGEGGEYETFTLDCPLFKKKIIVDSSEVVIHSADAFAPVAYLRFLELHLEDKVSSVPDNYRTSNYIYNF [DPH6] | -0.982 | 0.029 | -0.0821 | 50.2 | 50.6 | 0.152
5 | ARFGAP2 | -0.318 | -0.233 | -0.11 | 49.6 | 49.4 | 0.205
6 | MAMLVLVPGRVMRPLGGQLWRFLPRGLEFWGPAEGTARVLLRQFCARQAEAWRASGRPGYCLGTRPLSTARPPPPWSQKGPGDSTRPSKPGPVSWKSLAITFAIGGALLAGMKHVKKEKAEKLEKERQRHIGKPLLGGPFSLTTHTGERKTDKDYLGQWLLIYFGFTHCPDVCPEELEKMIQVVDEIDSITTLPDLTPLFISIDPERDTKEAIANYVKEFSPKLVGLTGTREEVDQVARAYRVYYSPGPKDEDEDYIVDHTIIMYLIGPDGEFLDYFGQNKRKGEIAASIATHMRPYRKKS [SCO1] | 2.42 | 1.59 | -0.107 | 49.8 | 51.2 | 0.47
